Laboratory results reported in article PMC5364489, “Isolation and characterization of the E. coli membrane protein production strain Mutant56(DE3)”.

Target: wild-type T7 RNA polymerase (Enterobacteria phage T7 (gene from E. …, UniProt P00573 1-883))
Assay: EMSA; 2.5 uM dsDNA; half-saturation compared only in figure, not a true Kd; 50 mM Tris acetate, 10 mM magnesium acetate, 50 mM sodium acetate (pH not stated), 25 °C, 30 min; 1.5% TAE agarose gel
Details: protein: recombinant; label: 5' ATTO488 on strand 1; blunt

Sequence of wild-type T7 RNA polymerase (Enterobacteria phage T7 (P00573 whole entry): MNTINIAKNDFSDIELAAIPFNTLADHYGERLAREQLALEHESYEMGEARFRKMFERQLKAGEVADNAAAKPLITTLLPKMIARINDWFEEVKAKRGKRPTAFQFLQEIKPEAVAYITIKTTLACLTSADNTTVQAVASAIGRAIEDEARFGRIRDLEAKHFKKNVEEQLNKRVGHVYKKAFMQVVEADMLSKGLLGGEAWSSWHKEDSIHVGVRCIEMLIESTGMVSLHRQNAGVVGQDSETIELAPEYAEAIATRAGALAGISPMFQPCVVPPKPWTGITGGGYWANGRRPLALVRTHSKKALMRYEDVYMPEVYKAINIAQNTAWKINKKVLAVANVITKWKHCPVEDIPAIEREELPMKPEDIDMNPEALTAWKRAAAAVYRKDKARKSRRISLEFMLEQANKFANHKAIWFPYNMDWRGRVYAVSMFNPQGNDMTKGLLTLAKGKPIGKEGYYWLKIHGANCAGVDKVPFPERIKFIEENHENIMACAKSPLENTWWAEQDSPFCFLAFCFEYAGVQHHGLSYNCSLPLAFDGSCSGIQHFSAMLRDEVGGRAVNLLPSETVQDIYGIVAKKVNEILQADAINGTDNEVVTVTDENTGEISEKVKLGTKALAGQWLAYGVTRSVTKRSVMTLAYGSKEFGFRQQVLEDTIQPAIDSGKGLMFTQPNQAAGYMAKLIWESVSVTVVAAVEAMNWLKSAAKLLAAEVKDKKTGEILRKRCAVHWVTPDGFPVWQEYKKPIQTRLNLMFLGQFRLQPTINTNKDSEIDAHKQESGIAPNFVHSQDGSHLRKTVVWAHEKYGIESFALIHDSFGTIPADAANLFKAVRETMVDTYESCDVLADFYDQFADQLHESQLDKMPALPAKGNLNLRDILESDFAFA

B1: T7 promoter dsDNA (dsDNA)
DNA 1: GCCAGTAATACGACTCACTATAGGG
DNA 2: CCCTATAGTGAGTCGTATTACTGGC
B1: binds.
